Source: the RNAGym collection of RNA variant scans (doi:10.1073/pnas.2313332121)

B1: TPR t1 (parent)
chain: GACCAAUCUGCCCUCAGAGCUCGAGAACAUCUUCGGAUGCAGAGGAGGCAGGCUUCGGUGGCGCGAUAGCGCCAACGUCCUCAACCUCCAAUGCAUCCCACCACAUGAUGAUGCCUGAAGAGCCUUGGUUUUUUG

Variants of: B1
Assay: polymerase ribozyme fitness, log enrichment relative to wild type (log ratio); higher = more active; in vitro selection for triplet polymerase activity
Outline: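 Input and output libraries were sequenced on Illumina after a single in vitro selection round, run in triplicate on PCR-built, transcribed mutant libraries of each subunit of a heterodimeric triplet polymerase ribozyme. Selection annealed libraries to a biotinylated primer, the partner subunit and triplets, incubated them frozen at −7 °C, then gel-excised extended constructs for streptavidin-bead capture and RT-PCR. Genotypes with ≥10 input reads and ≥1 read per output were kept. Fitness is the logarithm, taken in base 2, of genotype enrichment divided by wild-type enrichment, using inverse-variance-weighted replicate averages.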

Variant | polymerase ribozyme fitness (log ratio)
C11U G110C | -2.8
C11U G110A | -1.63
C11U G110U | -1.5
C12A C15U C73A C79U C86A C115U | -3.16
C12A A37G U55G | -0.496
C12A A91C U106A G117U | -5.61
C12A C31U | -4.6
C12A C31A | -6.73
C12A A43U | -2.89
C11U U32C C97G | -4.82
C11U G61A A105G U106A | -0.0724
C12A A18G C82A C101A U130G | -7.19
C11U U59G G93C U129C | -1.93
C12A A50U C70A | -3.58
C11U U133G | -0.78
C11U G51A C56G C124A | -0.733
C11U U96A G110U | -2.95
C11U G77A | -1.92
C11U G48U G57U G61C C89U U106A | -3.19
C12A C15U G52U C62A C86U G117C | -5.92
C12A A37U U78A A83G U106C | -3.17

Variant | polymerase ribozyme fitness (log ratio)
C12A A43C G61U | -0.92
C12A C15A C73U C82U | -3.66
C11U G107A | -6.13
C11U G44C A46U | -2.61
C12A A111U | -2.77
C12A A111C | -0.641
C12A C13U A95U A100U G110A | -2.79
C11U U55C G61A A121G | 1.39
C12A C13U G71A G93A | -0.733
C11U G58A G69U | -0.296
C12A C13G G45C A119U C124A U132A | 0.6
C12A C28G G44A | -4.91
C12A A43G C62U C124G G127U | -0.505
C11U G57A G58U G63U G77U C82G U106A | -3.25
C11U U87A | 0.703
C11U G47U C62U G71U C82A A95U | -2.79
C12A A41U A90C | -1.95
C12A | -0.413
C11U G35U A111U G122C | -6.28
C12A A27G G71U G93A | -6.11
C11U G47A G61U U78A | -0.709

Variant | polymerase ribozyme fitness (log ratio)
C12A C20A | -2.37
C12A C20U | -0.43
C12A A66G G69U G71U | -2.65
C12A A50U A74C A84G U112A | -4.85
C11U G93C G122A | -0.0927
C11U G93C U112A G127C U134A | -0.699
C12A A75G | -0.0398
C12A A50U G61C U78C C85U C124U | -6.64
C11U U116C | -1.29
C12A A83U U106G | -2.32
C12A A26U | -3.83
C11U G45C U81G | -4.91
C11U G23A | -5.77
C12A C22U U96A | -4.9
C12A A43U C56A | -2.54
C11U G36A C101U | -4.98
C12A C13U U54A C72U C89A | -1.99
C11U G58A U126G | -2.59
C12A A43C C53U | -2.86
C12A C15U C70U C86U | -2.81
C11U G69A A84C C123U | -0.562

Variant | polymerase ribozyme fitness (log ratio)
C11U G47C G71U U92G G113C | -5.32
C12A A121G | 1.96
C12A A26C C56U G69A C85A | -7.09
C12A A43G C70A U81A G120U | -5.53
C11U G42U C101A | -3.62
C11U G61C G120U G122U | -1.06
C11U G71U | 0.863
C12A A16C | -2.4
C12A A27C C40G G63C G120A | -2.65
C12A A37C C40U G47A C73A | -4.88
C11U G63C | -1.64
C11U U21C C82G | -0.576
C11U G61U U96A | -1.65
C12A A26U G44C C102U C123G | -7.51
C11U U54G C73U C97U G120C | 0.506
C12A A46C U59A | -0.649
C11U U32C C123G | 1.18
C12A C13U G39U | -0.844
C11U G71U U132C | -0.794
C12A C28A G39C A111C G122A | -5.3
C12A A16G G36U | -4.37
